Experimental data from patent publication US20120070405A1.

Tests used:
[1] = target: CXCR1 on CXCR1-transfected HEK293 cells (UniProt P25024); assay: cell-based or functional assay
[2] = target: CXCR2 on purified human neutrophils (human) (UniProt P25025); assay: cell-based or functional assay
Sequence of UniProt P25025 (P25025 whole entry): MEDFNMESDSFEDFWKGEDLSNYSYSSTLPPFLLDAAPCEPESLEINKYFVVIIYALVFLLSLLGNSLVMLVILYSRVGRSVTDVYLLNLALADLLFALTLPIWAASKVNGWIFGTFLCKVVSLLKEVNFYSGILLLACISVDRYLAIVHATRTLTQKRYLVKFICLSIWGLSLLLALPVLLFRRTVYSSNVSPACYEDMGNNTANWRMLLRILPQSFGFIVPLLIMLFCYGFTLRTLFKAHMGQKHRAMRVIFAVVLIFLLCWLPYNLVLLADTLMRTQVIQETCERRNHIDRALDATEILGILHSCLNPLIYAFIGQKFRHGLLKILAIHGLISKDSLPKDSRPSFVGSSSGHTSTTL

Sequence of UniProt P25024 (P25024 whole entry): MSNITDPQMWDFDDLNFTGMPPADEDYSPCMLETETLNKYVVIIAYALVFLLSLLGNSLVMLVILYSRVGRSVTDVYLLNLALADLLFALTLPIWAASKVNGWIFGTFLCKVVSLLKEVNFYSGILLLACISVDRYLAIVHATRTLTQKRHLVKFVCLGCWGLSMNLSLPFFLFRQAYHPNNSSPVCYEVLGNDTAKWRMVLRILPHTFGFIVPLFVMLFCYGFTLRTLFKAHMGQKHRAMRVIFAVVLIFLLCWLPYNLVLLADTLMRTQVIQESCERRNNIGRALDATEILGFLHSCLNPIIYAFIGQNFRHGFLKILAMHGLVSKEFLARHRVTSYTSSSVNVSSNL

Question: Which CXCL8-induced chemotactic responses of CXCR1-transfected HEK293 cells (modified Boyden chamber), G31P at 10 ng/ml [1] does the source give for “human GS-CXCL8(3-72)K11R/G31P (from UniProt P10145 30-99) (ligand)” here?
Answer: Its CXCL8-induced chemotactic responses of CXCR1-transfected HEK293 cells (modified Boyden chamber), G31P at 10 ng/ml is 80 % blocked.

Question: What about the intracellular Ca^++ flux in human neutrophils induced by CXCL1 (100 ng/ml), G31P at 10 ng/ml [2] of the same substance?
Answer: Its intracellular Ca^++ flux in human neutrophils induced by CXCL1 (100 ng/ml), G31P at 10 ng/ml is less than 95 % reduced.

Question: And the intracellular Ca^++ flux in human neutrophils induced by CXCL5 (100 ng/ml), G31P at 10 ng/ml [2]?
Answer: The intracellular Ca^++ flux in human neutrophils induced by CXCL5 (100 ng/ml), G31P at 10 ng/ml was less than 95 % reduced.
